{
  "source": "paper PMC10167121",
  "about": "“Completing the TRB family: newly characterized members show ancient evolutionary origins and distinct localization, yet similar interactions”",
  "binders": {"B1": {"name": "telomeric (four plant telomeric repeats) (dsDNA)", "DNA 1": "AAACCCTAAACCCTAAACCCTAAACCCT", "DNA 2": "AGGGTTTAGGGTTTAGGGTTTAGGGTTT"}, "B2": {"name": "telo-box (dsDNA)", "DNA 1": "TTTTTCACGAAAACCCTAATCGCAGTCG", "DNA 2": "CGACTGCGATTAGGGTTTTCGTGAAAAA"}},
  "key": {"TRB5 [1]": {"target": "T1, TRB5 (Arabidopsis thaliana (Col-0), UniProt F4IEY4 1-287)", "T1 sequence": "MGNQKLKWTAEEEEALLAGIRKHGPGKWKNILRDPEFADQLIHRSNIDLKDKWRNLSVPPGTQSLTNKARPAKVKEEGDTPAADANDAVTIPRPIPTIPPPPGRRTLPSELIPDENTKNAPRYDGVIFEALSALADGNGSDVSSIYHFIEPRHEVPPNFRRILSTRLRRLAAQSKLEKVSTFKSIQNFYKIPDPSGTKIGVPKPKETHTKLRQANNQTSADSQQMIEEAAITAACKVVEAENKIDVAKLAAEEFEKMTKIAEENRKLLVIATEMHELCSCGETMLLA", "experiment": "EMSA; high-molecular-weight complex not entering the gel; resists 100x non-telomeric competitor; 10 mM Tris-HCl pH 8.0, 1 mM EDTA, 1 mM DTT, 50 mM NaCl, 5% glycerol; 10 pmol protein, 1 pmol probe, on ice 20 min; 7.5% PAGE, 0.5x TBE, 15 C", "conditions": "protein: recombinant; tags: His-tag (pHGWA); chain copies: 2; label: 32P 5'-end; blunt"}, "TRB1": {"target": "T2, TRB1 (Arabidopsis thaliana, UniProt Q8VWK4 1-300)", "T2 sequence": "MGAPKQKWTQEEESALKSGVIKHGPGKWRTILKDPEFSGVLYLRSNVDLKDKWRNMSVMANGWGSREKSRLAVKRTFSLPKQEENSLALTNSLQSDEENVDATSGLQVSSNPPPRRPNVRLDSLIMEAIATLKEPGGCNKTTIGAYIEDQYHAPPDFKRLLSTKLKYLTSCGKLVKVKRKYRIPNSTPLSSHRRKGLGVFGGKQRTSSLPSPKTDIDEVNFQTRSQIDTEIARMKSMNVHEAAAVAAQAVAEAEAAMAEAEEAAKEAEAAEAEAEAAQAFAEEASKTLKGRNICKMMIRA", "experiment": "EMSA; high-molecular-weight complex not entering the gel; resists 100x non-telomeric competitor; 10 mM Tris-HCl pH 8.0, 1 mM EDTA, 1 mM DTT, 50 mM NaCl, 5% glycerol; 10 pmol protein, 1 pmol probe, on ice 20 min; 7.5% PAGE, 0.5x TBE, 15 C", "conditions": "protein: recombinant; tags: His-tag (pHGWA); label: 32P 5'-end; blunt"}, "TRB4 [2]": {"target": "T3, TRB4 (Arabidopsis thaliana, UniProt F4I7L1 1-296)", "T3 sequence": "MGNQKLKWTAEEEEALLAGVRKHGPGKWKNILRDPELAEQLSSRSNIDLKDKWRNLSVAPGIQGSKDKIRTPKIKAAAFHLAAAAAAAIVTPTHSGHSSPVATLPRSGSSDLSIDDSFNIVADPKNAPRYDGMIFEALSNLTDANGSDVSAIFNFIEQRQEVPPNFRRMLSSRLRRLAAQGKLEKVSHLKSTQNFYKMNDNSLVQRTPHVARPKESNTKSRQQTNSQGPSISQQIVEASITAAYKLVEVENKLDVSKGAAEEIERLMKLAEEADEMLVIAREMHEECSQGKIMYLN", "experiment": "EMSA; high-molecular-weight complex not entering the gel; resists 100x non-telomeric competitor; 10 mM Tris-HCl pH 8.0, 1 mM EDTA, 1 mM DTT, 50 mM NaCl, 5% glycerol; 10 pmol protein, 1 pmol probe, on ice 20 min; 7.5% PAGE, 0.5x TBE, 15 C", "conditions": "protein: recombinant; tags: His-tag (pHGWA); chain copies: 2; label: 32P 5'-end; blunt"}, "TRB5 [3]": {"target": "T1, TRB5", "experiment": "EMSA; non-telomeric competitor 1-100x; 10 mM Tris-HCl pH 8.0, 1 mM EDTA, 1 mM DTT, 50 mM NaCl, 5% glycerol; 10 pmol protein, 1 pmol probe, on ice 20 min; 7.5% PAGE, 0.5x TBE, 15 C", "conditions": "protein: recombinant; tags: His-tag (pHGWA); chain copies: 2; label: 32P 5'-end; blunt"}, "TRB4 [4]": {"target": "T3, TRB4", "experiment": "EMSA; non-telomeric competitor 1-100x; 10 mM Tris-HCl pH 8.0, 1 mM EDTA, 1 mM DTT, 50 mM NaCl, 5% glycerol; 10 pmol protein, 1 pmol probe, on ice 20 min; 7.5% PAGE, 0.5x TBE, 15 C", "conditions": "protein: recombinant; tags: His-tag (pHGWA); chain copies: 2; label: 32P 5'-end; blunt"}},
  "data": [
    {"binder": "B1", "values": [
      {"measurement": "binding result", "setting": "TRB5 [1]", "value": "binds"},
      {"measurement": "binding result", "setting": "TRB1", "value": "binds"},
      {"measurement": "binding result", "setting": "TRB4 [2]", "value": "binds"}
    ]},
    {"binder": "B2", "values": [
      {"measurement": "binding result", "setting": "TRB5 [3]", "value": "binds"},
      {"measurement": "binding result", "setting": "TRB4 [4]", "value": "binds"}
    ]}
  ]
}
